Where two headings read alike, the source gives them in different places. Numbered stars: 1 amine (or outer) side, 2 acyl side, 3 side chain; on linkers, the order of the positions; unused ones are H or OH. Bridge positions count the residues as written; N and C are the ends. Side chains are listed from the residue outwards. Ends that are not written are not given here. * marks the point of attachment. C20 diacid = O=C(O)CCCCCCCCCCCCCCCCCCC(=O)*; γGlu = O=C(O)[C@H](CCC(=O)[*:2])N[*:1]; AEEA = NCCOCCOCC(=O)O
Columns and labels:
Assay in all cases: cell-based or functional assay
[1] = target: T1, human calcitonin receptor (human, UniProt P30988 25-474)
T1 sequence (looked up): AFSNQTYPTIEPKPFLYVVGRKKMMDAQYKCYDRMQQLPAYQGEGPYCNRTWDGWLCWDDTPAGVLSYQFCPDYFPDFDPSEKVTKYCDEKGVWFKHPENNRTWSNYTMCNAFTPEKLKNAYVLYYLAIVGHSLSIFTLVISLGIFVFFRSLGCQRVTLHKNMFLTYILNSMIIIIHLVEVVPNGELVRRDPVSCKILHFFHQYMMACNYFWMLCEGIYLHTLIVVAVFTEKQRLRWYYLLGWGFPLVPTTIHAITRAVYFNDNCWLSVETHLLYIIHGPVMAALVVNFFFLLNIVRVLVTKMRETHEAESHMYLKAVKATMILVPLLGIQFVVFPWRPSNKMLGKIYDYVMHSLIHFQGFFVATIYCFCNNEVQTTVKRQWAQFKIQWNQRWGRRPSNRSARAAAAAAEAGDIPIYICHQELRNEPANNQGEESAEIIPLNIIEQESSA

[2] = target: T2, human amylin 3(a) receptor (human calcitonin receptor co-expressed with RAMP-3) (human, UniProt P30988 25-474; O60896 24-148, limits assumed)
T2 sequence (looked up) 1: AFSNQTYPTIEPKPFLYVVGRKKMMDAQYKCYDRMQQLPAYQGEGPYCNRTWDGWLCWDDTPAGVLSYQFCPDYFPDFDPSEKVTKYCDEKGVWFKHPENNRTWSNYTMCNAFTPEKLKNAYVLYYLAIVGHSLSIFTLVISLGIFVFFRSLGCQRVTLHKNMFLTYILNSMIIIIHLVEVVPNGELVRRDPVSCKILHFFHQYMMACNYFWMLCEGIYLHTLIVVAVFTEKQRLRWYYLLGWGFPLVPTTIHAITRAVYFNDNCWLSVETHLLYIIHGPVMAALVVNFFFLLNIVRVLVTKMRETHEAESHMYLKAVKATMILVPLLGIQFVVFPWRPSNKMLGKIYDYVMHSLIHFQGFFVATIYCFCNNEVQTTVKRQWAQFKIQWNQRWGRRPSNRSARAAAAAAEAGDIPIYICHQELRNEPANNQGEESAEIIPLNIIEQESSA
T2 sequence (looked up) 2: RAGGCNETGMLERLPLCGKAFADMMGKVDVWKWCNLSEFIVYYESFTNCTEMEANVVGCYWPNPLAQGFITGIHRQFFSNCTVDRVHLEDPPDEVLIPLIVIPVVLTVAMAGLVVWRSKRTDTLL

[3] = target: T3, human calcitonin receptor (human, UniProt P30988 25-474); remark: listed apart in the source
T3 sequence (looked up): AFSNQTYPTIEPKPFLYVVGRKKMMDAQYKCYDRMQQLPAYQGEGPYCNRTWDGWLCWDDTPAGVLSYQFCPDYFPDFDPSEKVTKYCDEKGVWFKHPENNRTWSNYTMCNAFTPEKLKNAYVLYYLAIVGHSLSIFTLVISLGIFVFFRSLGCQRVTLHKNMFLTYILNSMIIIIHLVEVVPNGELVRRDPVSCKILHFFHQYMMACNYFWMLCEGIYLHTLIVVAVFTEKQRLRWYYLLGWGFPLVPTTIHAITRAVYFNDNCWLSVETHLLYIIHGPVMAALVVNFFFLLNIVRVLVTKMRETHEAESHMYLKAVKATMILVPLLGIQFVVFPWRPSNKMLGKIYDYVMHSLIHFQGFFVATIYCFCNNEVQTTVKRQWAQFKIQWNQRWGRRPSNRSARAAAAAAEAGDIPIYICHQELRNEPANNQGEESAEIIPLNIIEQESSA

Row | Binder | Ratio hCT/hAmylin funct. [1] | hCTR funct. EC50 [1] | hAmylin-R funct. EC50 [2] | hCTR funct. EC50 [3]
1 | K([AEEA-AEEA-γGlu-C20 diacid])CNTATCATQRLANFLRHSSPNFGAIPSSTNVGHNTY-NH2 (disulfide 2-7; N-terminus assumed; SMILES CC[C@H](C)[C@H](NC(=O)[C@H](C)NC(=O)CNC(=O)[C@H](Cc1ccccc1)NC(=O)[C@H](CC(N)=O)NC(=O)[C@@H]1CCCN1C(=O)[C@H](CO)NC(=O)[C@H](CO)NC(=O)[C@H](Cc1c[nH]cn1)NC(=O)[C@H](CCCNC(=N)N)NC(=O)[C@H](CC(C)C)NC(=O)[C@H](Cc1ccccc1)NC(=O)[C@H](CC(N)=O)NC(=O)[C@H](C)NC(=O)[C@H](CC(C)C)NC(=O)[C@H](CCCNC(=N)N)NC(=O)[C@H](CCC(N)=O)NC(=O)[C@@H](NC(=O)[C@H](C)NC(=O)[C@@H]1CSSC[C@H](NC(=O)[C@@H](N)CCCCNC(=O)COCCOCCNC(=O)COCCOCCNC(=O)CC[C@H](NC(=O)CCCCCCCCCCCCCCCCCCC(=O)O)C(=O)O)C(=O)N[C@@H](CC(N)=O)C(=O)N[C@@H]([C@@H](C)O)C(=O)N[C@@H](C)C(=O)N[C@@H]([C@@H](C)O)C(=O)N1)[C@@H](C)O)C(=O)N1CCC[C@H]1C(=O)N[C@@H](CO)C(=O)N[C@@H](CO)C(=O)N[C@H](C(=O)N[C@@H](CC(N)=O)C(=O)N[C@H](C(=O)NCC(=O)N[C@@H](Cc1c[nH]cn1)C(=O)N[C@@H](CC(N)=O)C(=O)N[C@H](C(=O)N[C@@H](Cc1ccc(O)cc1)C(N)=O)[C@@H](C)O)C(C)C)[C@@H](C)O, also called compound 97) | 33 | 11.8 nM | 356 pM | –
2 | K([AEEA-C20 diacid])CNTATCATQRLAHFLRHSSPNFGAIPSSTNVGSNTY-NH2 (disulfide 2-7; N-terminus assumed; SMILES CC[C@H](C)[C@H](NC(=O)[C@H](C)NC(=O)CNC(=O)[C@H](Cc1ccccc1)NC(=O)[C@H](CC(N)=O)NC(=O)[C@@H]1CCCN1C(=O)[C@H](CO)NC(=O)[C@H](CO)NC(=O)[C@H](Cc1c[nH]cn1)NC(=O)[C@H](CCCNC(=N)N)NC(=O)[C@H](CC(C)C)NC(=O)[C@H](Cc1ccccc1)NC(=O)[C@H](Cc1c[nH]cn1)NC(=O)[C@H](C)NC(=O)[C@H](CC(C)C)NC(=O)[C@H](CCCNC(=N)N)NC(=O)[C@H](CCC(N)=O)NC(=O)[C@@H](NC(=O)[C@H](C)NC(=O)[C@@H]1CSSC[C@H](NC(=O)[C@@H](N)CCCCNC(=O)COCCOCCNC(=O)CCCCCCCCCCCCCCCCCCC(=O)O)C(=O)N[C@@H](CC(N)=O)C(=O)N[C@@H]([C@@H](C)O)C(=O)N[C@@H](C)C(=O)N[C@@H]([C@@H](C)O)C(=O)N1)[C@@H](C)O)C(=O)N1CCC[C@H]1C(=O)N[C@@H](CO)C(=O)N[C@@H](CO)C(=O)N[C@H](C(=O)N[C@@H](CC(N)=O)C(=O)N[C@H](C(=O)NCC(=O)N[C@@H](CO)C(=O)N[C@@H](CC(N)=O)C(=O)N[C@H](C(=O)N[C@@H](Cc1ccc(O)cc1)C(N)=O)[C@@H](C)O)C(C)C)[C@@H](C)O, also called compound 90) [N^ε1-[2-[2-[2-(19-carboxynonadecanoylamino)ethoxy]ethoxy]acetyl]-[His14,Arg17,Pro21,Pro27]-h-amylin] | 7.2 | 0.236 nM | 33 pM | –
3 | {C20 diacid-γGlu}-GRCNTATCATQRLAHFLRHSSPNFGAIPSSTNVGHNTY-NH2 (disulfide 3-8; SMILES CC[C@H](C)[C@H](NC(=O)[C@H](C)NC(=O)CNC(=O)[C@H](Cc1ccccc1)NC(=O)[C@H](CC(N)=O)NC(=O)[C@@H]1CCCN1C(=O)[C@H](CO)NC(=O)[C@H](CO)NC(=O)[C@H](Cc1c[nH]cn1)NC(=O)[C@H](CCCNC(=N)N)NC(=O)[C@H](CC(C)C)NC(=O)[C@H](Cc1ccccc1)NC(=O)[C@H](Cc1c[nH]cn1)NC(=O)[C@H](C)NC(=O)[C@H](CC(C)C)NC(=O)[C@H](CCCNC(=N)N)NC(=O)[C@H](CCC(N)=O)NC(=O)[C@@H](NC(=O)[C@H](C)NC(=O)[C@@H]1CSSC[C@H](NC(=O)[C@H](CCCNC(=N)N)NC(=O)CNC(=O)CC[C@H](NC(=O)CCCCCCCCCCCCCCCCCCC(=O)O)C(=O)O)C(=O)N[C@@H](CC(N)=O)C(=O)N[C@@H]([C@@H](C)O)C(=O)N[C@@H](C)C(=O)N[C@@H]([C@@H](C)O)C(=O)N1)[C@@H](C)O)C(=O)N1CCC[C@H]1C(=O)N[C@@H](CO)C(=O)N[C@@H](CO)C(=O)N[C@H](C(=O)N[C@@H](CC(N)=O)C(=O)N[C@H](C(=O)NCC(=O)N[C@@H](Cc1c[nH]cn1)C(=O)N[C@@H](CC(N)=O)C(=O)N[C@H](C(=O)N[C@@H](Cc1ccc(O)cc1)C(N)=O)[C@@H](C)O)C(C)C)[C@@H](C)O, also called compound 100) | – | – | – | 1730 pM

From US20140087995A1 (published 2014)
